Data taken from patent US20160136295A1, “BIOMARKERS FOR TREATMENT WITH ANTI-TUBULIN CHEMOTHERAPEUTIC COMPOUNDS” (GENENTECH, INC., priority 2012, published 2016).

B1: MAPK11: purified recombinant kinase purchased from Invitrogen (protein, UniProt Q15759 1-364, looked up)
Mitogen-activated protein …: MSGPRAGFYRQELNKTVWEVPQRLQGLRPVGSGAYGSVCSAYDARLRQKVAVKKLSRPFQSLIHARRTYRELRLLKHLKHENVIGLLDVFTPATSIEDFSEVYLVTTLMGADLNNIVKCQALSDEHVQFLVYQLLRGLKYIHSAGIIHRDLKPSNVAVNEDCELRILDFGLARQADEEMTGYVATRWYRAPEIMLNWMHYNQTVDIWSVGCIMAELLQGKALFPGSDYIDQLKRIMEVVGTPSPEVLAKISSEHARTYIQSLPPMPQKDLSSIFRGANPLAIDLLGRMLVLDSDQRVSAAEALAHAYFSQYHDPEDEPEAEPYDESVEAKERTLEEWKELTYQEVLSFKPPEPPKPPGSLEIEQ
B2: MAPK10: purified recombinant kinase purchased from Invitrogen (protein, UniProt P53779 1-464, looked up)
Mitogen-activated protein …: MSLHFLYYCSEPTLDVKIAFCQGFDKQVDVSYIAKHYNMSKSKVDNQFYSVEVGDSTFTVLKRYQNLKPIGSGAQGIVCAAYDAVLDRNVAIKKLSRPFQNQTHAKRAYRELVLMKCVNHKNIISLLNVFTPQKTLEEFQDVYLVMELMDANLCQVIQMELDHERMSYLLYQMLCGIKHLHSAGIIHRDLKPSNIVVKSDCTLKILDFGLARTAGTSFMMTPYVVTRYYRAPEVILGMGYKENVDIWSVGCIMGEMVRHKILFPGRDYIDQWNKVIEQLGTPCPEFMKKLQPTVRNYVENRPKYAGLTFPKLFPDSLFPADSEHNKLKASQARDLLSKMLVIDPAKRISVDDALQHPYINVWYDPAEVEAPPPQIYDKQLDEREHTIEEWKELIYKEVMNSEEKTKNGVVKGQPSPSGAAVNSSESLPPSSSVNDISSMSTDQTLASDTDSSLEASAGPLGCCR
B3: MAPK13: purified recombinant kinase purchased from Invitrogen (protein, UniProt O15264 1-365, looked up)
Mitogen-activated protein …: MSLIRKKGFYKQDVNKTAWELPKTYVSPTHVGSGAYGSVCSAIDKRSGEKVAIKKLSRPFQSEIFAKRAYRELLLLKHMQHENVIGLLDVFTPASSLRNFYDFYLVMPFMQTDLQKIMGMEFSEEKIQYLVYQMLKGLKYIHSAGVVHRDLKPGNLAVNEDCELKILDFGLARHADAEMTGYVVTRWYRAPEVILSWMHYNQTVDIWSVGCIMAEMLTGKTLFKGKDYLDQLTQILKVTGVPGTEFVQKLNDKAAKSYIQSLPQTPRKDFTQLFPRASPQAADLLEKMLELDVDKRLTAAQALTHPFFEPFRDPEEETEAQQPFDDSLEHEKLTVDEWKQHIYKEIVNFSPIARKDSRRRSGMKL
B4: MAPK8: purified recombinant kinase purchased from Invitrogen (protein, UniProt P45983 1-427, looked up)
Mitogen-activated protein …: MSRSKRDNNFYSVEIGDSTFTVLKRYQNLKPIGSGAQGIVCAAYDAILERNVAIKKLSRPFQNQTHAKRAYRELVLMKCVNHKNIIGLLNVFTPQKSLEEFQDVYIVMELMDANLCQVIQMELDHERMSYLLYQMLCGIKHLHSAGIIHRDLKPSNIVVKSDCTLKILDFGLARTAGTSFMMTPYVVTRYYRAPEVILGMGYKENVDLWSVGCIMGEMVCHKILFPGRDYIDQWNKVIEQLGTPCPEFMKKLQPTVRTYVENRPKYAGYSFEKLFPDVLFPADSEHNKLKASQARDLLSKMLVIDASKRISVDEALQHPYINVWYDPSEAEAPPPKIPDKQLDEREHTIEEWKELIYKEVMDLEERTKNGVIRGQPSPLGAAVINGSQHPSSSSSVNDVSSMSTDPTLASDTDSSLEAAAGPLGCCR
B5: MAPK12: purified recombinant kinase purchased from Invitrogen (protein, UniProt P53778 1-367, looked up)
Mitogen-activated protein …: MSSPPPARSGFYRQEVTKTAWEVRAVYRDLQPVGSGAYGAVCSAVDGRTGAKVAIKKLYRPFQSELFAKRAYRELRLLKHMRHENVIGLLDVFTPDETLDDFTDFYLVMPFMGTDLGKLMKHEKLGEDRIQFLVYQMLKGLRYIHAAGIIHRDLKPGNLAVNEDCELKILDFGLARQADSEMTGYVVTRWYRAPEVILNWMRYTQTVDIWSVGCIMAEMITGKTLFKGSDHLDQLKEIMKVTGTPPAEFVQRLQSDEAKNYMKGLPELEKKDFASILTNASPLAVNLLEKMLVLDAEQRVTAGEALAHPYFESLHDTEDEPQVQKYDDSFDDVDRTLDEWKRVTYKEVLSFKPPRQLGARVSKETPL

System: Mcl-1 S159/T163
Experiment: In vitro kinase reactions: percent phosphorylation of full-length recombinant Mcl-1 at S159+T163
Assay type: biochemical, human
Details: % phos on S159+T163, CDK1 + kinase panel reactions, average
Protocol: (§1) To determine the suitability of residues in Mcl-1 as kinase substrates, 10 μM of Mcl-1 was incubated with selected kinase at enzyme concentrations between 25 and 100 nM. For these reactions the Mcl-1 was dialyzed into 20 mM Phosphate, 50 mM Tris pH 7.5 150 mM NaCl, 5 mM DTT and 0.5% CHAPS. The protein solution was further supplemented with MgCl2 to 10 mM and ATP to 1 mM prior to addition of kinase. Purified recombinant kinases were purchased from Invitrogen Co. (Carlsbad, Calif.).
(§2) 10 μl of each of the Mcl-1 kinase reactions (100 pmol) were loaded onto a 4-12% Bis-Tris gel for separation by SDS-PAGE after reduction. Mcl-1 bands were excised from the gel, dehydrated (50% acetonitrile in 50 mM ammonium bicarbonate then 100% acetonitrile washes), and incubated with 0.2 μg trypsin overnight at 37° C.
(§3) Samples were injected in duplicate via autosampler onto a nanoAcquity® UPLC (Waters, Milford, Mass.) and analyzed on-line via nanospray ionization into an LTQ-Orbitrap® mass spectrometer at a concentration of 300 fmol synthetic peptide mix per injection. Areas were integrated for the isotopic and kinase phosphorylated peptides, and compared to their non-phosphorylated peptide counterparts to obtain percent phosphorylation values.

Row | Molecule | Percent phosphorylation S159/T163, AVE [%]
1 | B1 | 0.94
2 | B2 | 4.10
3 | B3 | 0.56
4 | B4 | 9.45
5 | B5 | 0.00

Same assay, conditions: % phos on S159+T163, CDK1 + kinase panel reactions, sample injection 1

Row | Molecule | Percent phosphorylation S159/T163, INJ1 [%]
6 | B1 | 1.15
7 | B2 | 3.86
8 | B3 | 0.74
9 | B4 | 10.13
10 | B5 | 0.00

Same assay, conditions: % phos on S159+T163, CDK1 + kinase panel reactions, sample injection 2

Row | Molecule | Percent phosphorylation S159/T163, INJ2 [%]
11 | B1 | 0.73
12 | B2 | 4.33
13 | B3 | 0.38
14 | B4 | 8.76
15 | B5 | 0.00

Same assay, conditions: % phos on S159+T163, single kinase reactions, average

Row | Molecule | Percent phosphorylation S159/T163, AVE [%]
16 | B1 | 2.56
17 | B2 | 16.83
18 | B3 | 4.70
19 | B4 | 16.98
20 | B5 | 0.00

Same assay, conditions: % phos on S159+T163, single kinase reactions, sample injection 1

Row | Molecule | Percent phosphorylation S159/T163, INJ1 [%]
21 | B1 | 3.06
22 | B2 | 16.73
23 | B3 | 5.77
24 | B4 | 15.54
25 | B5 | 0.00

Same assay, conditions: % phos on S159+T163, single kinase reactions, sample injection 2

Row | Molecule | Percent phosphorylation S159/T163, INJ2 [%]
26 | B1 | 2.06
27 | B2 | 16.92
28 | B3 | 3.62
29 | B4 | 18.42
30 | B5 | 0.00

System: Mcl-1 T92
Experiment: In vitro kinase reactions: percent phosphorylation of full-length recombinant Mcl-1 at T92
Assay type: biochemical, human
Details: single kinase reactions, average; peak areas of 0 and 1P, triple charged state
Protocol: as §1, §2, §3

Row | Molecule | Percent phosphorylation T92, AVE [%]
31 | B1 | 3.27
32 | B2 | 9.35
33 | B3 | 22.75
34 | B4 | 6.04
35 | B5 | 69.58

Same assay, conditions: single kinase reactions, sample injection 1; peak areas of 0 and 1P, triple charged state

Row | Molecule | Percent phosphorylation T92, INJ1 [%]
36 | B1 | 2.59
37 | B2 | 10.29
38 | B3 | 22.96
39 | B4 | 5.99
40 | B5 | 71.57

Same assay, conditions: single kinase reactions, sample injection 2; peak areas of 0 and 1P, triple charged state

Row | Molecule | Percent phosphorylation T92, INJ2 [%]
41 | B1 | 3.95
42 | B2 | 8.41
43 | B3 | 22.54
44 | B4 | 6.08
45 | B5 | 67.59

System: Mcl-1 T163
Experiment: In vitro kinase reactions: percent phosphorylation of full-length recombinant Mcl-1 at T163
Assay type: biochemical, human
Details: single kinase reactions, average of INJ1 and INJ2
Protocol: as §1, §2, §3

Row | Molecule | Percent phosphorylation T163, AVE [%]
46 | B1 | 51.87
47 | B2 | 43.90
48 | B3 | 64.78
49 | B4 | 56.77
50 | B5 | 53.34

Same assay, conditions: single kinase reactions, sample injection 1

Row | Molecule | Percent phosphorylation T163, INJ1 [%]
51 | B1 | 53.70
52 | B2 | 45.09
53 | B3 | 65.53
54 | B4 | 60.42
55 | B5 | 55.05

Same assay, conditions: single kinase reactions, sample injection 2

Row | Molecule | Percent phosphorylation T163, INJ2 [%]
56 | B1 | 50.04
57 | B2 | 42.70
58 | B3 | 64.03
59 | B4 | 53.11
60 | B5 | 51.63

System: Mcl-1 S121
Experiment: In vitro kinase reactions: percent phosphorylation of full-length recombinant Mcl-1 at S121
Assay type: biochemical, human
Details: CDK1 + kinase panel reactions, average of INJ1 and INJ2
Protocol: as §1, §2, §3

Row | Molecule | Percent phosphorylation S121, AVE [%]
61 | B1 | 10.11
62 | B2 | 32.85
63 | B3 | 20.30
64 | B4 | 70.06
65 | B5 | 18.12

Same assay, conditions: CDK1 + kinase panel reactions, sample injection 1

Row | Molecule | Percent phosphorylation S121, INJ1 [%]
66 | B1 | 10.45
67 | B2 | 32.82
68 | B3 | 20.33
69 | B4 | 68.97
70 | B5 | 18.73

Same assay, conditions: CDK1 + kinase panel reactions, sample injection 2

Row | Molecule | Percent phosphorylation S121, INJ2 [%]
71 | B1 | 9.76
72 | B2 | 32.88
73 | B3 | 20.26
74 | B4 | 71.14
75 | B5 | 17.51

Same assay, conditions: single kinase reactions, average of INJ1 and INJ2

Row | Molecule | Percent phosphorylation S121, AVE [%]
76 | B1 | 5.66
77 | B2 | 13.14
78 | B3 | 8.21
79 | B4 | 21.56
80 | B5 | 11.00

Same assay, conditions: single kinase reactions, sample injection 1

Row | Molecule | Percent phosphorylation S121, INJ1 [%]
81 | B1 | 5.84
82 | B2 | 11.61
83 | B3 | 10.06
84 | B4 | 17.66
85 | B5 | 10.71

Same assay, conditions: single kinase reactions, sample injection 2

Row | Molecule | Percent phosphorylation S121, INJ2 [%]
86 | B1 | 5.48
87 | B2 | 14.67
88 | B3 | 6.35
89 | B4 | 25.46
90 | B5 | 11.28
